Measurements reported in patent US20100291106A1 (Novartis, published 2010).
Like-named read-outs stand apart in the source and are kept apart here.

B1: MOR09398 Fab (Fab, V domains shown)
VH: QVQLVESGGGLVQPGGSLRLSCAASGFTFSSYWMTWVRQAPGKGLEWVSSIKIKPDGYAASVKGRFTISRDNSKNTLYLQMNSLRAEDTAVYYCARLFYQYFARMDYWGQGTLVTVSS
VL: DIQMTQSPSSLSASVGDRVTITCRASQDISNYLNWYQQKPGKAPKLLIYAASNLQSGVPSRFSGSGSGTDFTLTISSLQPEDFATYYCQQWDSFSPTFGQGTKVEIKR
notes: also called Fab 9398
B2: MOR09397 Fab (Fab, V domains shown)
VH: QVQLVESGGGLVQPGGSLRLSCAASGFTFSSYWMTWVRQAPGKGLEWVSSIKIKPDGYAASVKGRFTISRDNSKNTLYLQMNSLRAEDTAVYYCARLFYQYFARMDYWGQGTLVTVSS
VL: DIQMTQSPSSLSASVGDRVTITCRASQDISNYLNWYQQKPGKAPKLLIYAASNLQSGVPSRFSGSGSGTDFTLTISSLQPEDFATYYCQQHDTFRPTFGQGTKVEIKR
notes: also called Fab 9397
B3: MOR09556 IgG (antibody, V domains shown)
VH: EVQLVESGGGLVQPGGSLRLSCAASGFTFSSYWMTWVRQAPGKGLEWVSSIKIKPDGYAASVKGRFTISRDNSKNTLYLQMNSLRAEDTAVYYCARLFYQYFARMDYWGQGTLVTVSS
VL: DIQMTQSPSSLSASVGDRVTITCRASQDISNYLNWYQQKPGKAPKLLIYAASNLQSGVPSRFSGSGSGTDFTLTISSLQPEDFATYYCQQYDSYSPTFGQGTKVEIKR
notes: Germlined human IgG1 with leucines 234 and 235 changed to alanines, kappa; also called antibody 9556
B4: MOR09675 IgG (antibody, V domains shown)
VH: EVQLVQSGAEVKKPGASVKVSCKASGYTFTGYYINWVRQAPGQGLEWMGIISPNQGTTGYAQKFQGRVTMTRDTSISTAYMELSSLRSEDTAVYYCARGNYDHLDYWGQGTLVTVSS
VL: DIQMTQSPSSLSASVGDRVTITCRASQGISNYLNWYQQKPGKAPKLLIYDASTLQSGVPSRFSGSGSGTDFTLTISSLQPEDFATYYCQQDWHTLPVTFGQGTKVEIKR
notes: Germlined human IgG1 with leucines 234 and 235 changed to alanines, kappa; also called antibody 9675

How the values were obtained:
[1] = target: T1, human complement C3b protein (human, UniProt P01024 23-667; P01024 749-1663); assay: bead proximity assay, C3b-acceptor beads; competitor fP-donor beads
T1 construct: Purified plasma C3b (Complement Technology, Quidel); Depending on the assay it was captured by an anti-C3d antibody, coated, biotinylated or coupled to beads; also called human C3b; huC3b
T1 sequence (P01024 23-667 P314L, chain 1 of 2): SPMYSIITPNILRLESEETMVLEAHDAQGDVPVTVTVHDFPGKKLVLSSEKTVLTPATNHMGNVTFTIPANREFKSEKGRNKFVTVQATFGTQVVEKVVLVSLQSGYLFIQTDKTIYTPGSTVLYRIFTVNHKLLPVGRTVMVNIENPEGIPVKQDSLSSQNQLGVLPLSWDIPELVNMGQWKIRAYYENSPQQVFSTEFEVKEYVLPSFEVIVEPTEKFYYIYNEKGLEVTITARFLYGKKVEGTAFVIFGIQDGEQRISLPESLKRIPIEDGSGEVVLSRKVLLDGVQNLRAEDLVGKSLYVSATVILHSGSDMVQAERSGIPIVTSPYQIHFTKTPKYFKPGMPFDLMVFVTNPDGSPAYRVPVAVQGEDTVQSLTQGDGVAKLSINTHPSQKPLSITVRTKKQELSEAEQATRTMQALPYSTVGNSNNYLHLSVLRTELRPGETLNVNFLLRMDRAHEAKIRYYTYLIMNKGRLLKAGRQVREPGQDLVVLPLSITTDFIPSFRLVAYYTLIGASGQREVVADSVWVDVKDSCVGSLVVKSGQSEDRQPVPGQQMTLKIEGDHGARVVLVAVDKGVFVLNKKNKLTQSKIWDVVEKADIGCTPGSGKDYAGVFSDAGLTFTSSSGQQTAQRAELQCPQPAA
T1 sequence (P01024 749-1663, chain 2 of 2): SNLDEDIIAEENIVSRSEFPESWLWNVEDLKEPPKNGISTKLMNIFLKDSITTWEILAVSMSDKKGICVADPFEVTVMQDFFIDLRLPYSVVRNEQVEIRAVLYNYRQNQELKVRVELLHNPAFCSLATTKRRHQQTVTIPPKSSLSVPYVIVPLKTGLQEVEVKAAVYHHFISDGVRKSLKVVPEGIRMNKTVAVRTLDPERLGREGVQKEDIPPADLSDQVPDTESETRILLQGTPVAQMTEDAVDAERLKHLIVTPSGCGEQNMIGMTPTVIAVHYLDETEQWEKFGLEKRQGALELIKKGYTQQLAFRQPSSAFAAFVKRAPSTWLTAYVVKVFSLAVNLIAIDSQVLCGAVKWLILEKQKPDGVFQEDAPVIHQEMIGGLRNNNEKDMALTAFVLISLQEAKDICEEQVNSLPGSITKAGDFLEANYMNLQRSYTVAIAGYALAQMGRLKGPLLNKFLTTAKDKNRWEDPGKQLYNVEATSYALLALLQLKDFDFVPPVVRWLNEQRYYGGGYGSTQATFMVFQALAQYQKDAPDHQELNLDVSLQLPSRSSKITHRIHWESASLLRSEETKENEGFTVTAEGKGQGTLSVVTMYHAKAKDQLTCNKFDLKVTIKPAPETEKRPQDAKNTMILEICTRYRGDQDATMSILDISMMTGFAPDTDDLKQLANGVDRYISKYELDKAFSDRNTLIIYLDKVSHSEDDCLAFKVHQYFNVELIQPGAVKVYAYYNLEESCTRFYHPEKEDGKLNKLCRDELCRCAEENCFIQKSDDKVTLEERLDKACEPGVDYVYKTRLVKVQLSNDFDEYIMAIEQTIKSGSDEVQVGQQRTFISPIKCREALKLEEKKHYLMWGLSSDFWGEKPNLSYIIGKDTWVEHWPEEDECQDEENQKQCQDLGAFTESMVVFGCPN
Protocol: (§1) For C3b-C3b and C3b-fP proximity, Fabs or IgGs respectively were pre-incubated with C3b-Acceptor beads (20 μg/ml) for 60 min at room temperature. C3b-Donor beads or fP-Donor beads (20 μg/ml) were then added, and the plate was incubated overnight at room temperature before reading. For C3b-fB and C3b-fH proximity, antibodies were pre-incubated with C3b-Acceptor beads (20 μg/ml) for 60 minutes at room temperature. Biotinylated fB(D24G/N260D) or fH were then added, and incubated for 60 minutes at room temperature. SA-Donor beads were then added (20 μg/ml) and the plate was incubated overnight at room temperature before reading. Plates were read on the BMG Pherastar (ex=680, em=520-620).

[2] = target: T2, cynomolgus complement C3b protein (cynomolgus monkey (Macaca fascicularis)); assay: SPR (Biacore), C3b captured by anti-C3d antibody, Fab as analyte
T2 construct: also called cyno C3b; cynoC3b

[3] = target: T1, human complement C3b protein; assay: as above
[4] = target: T3, human C3d (human, UniProt P01024 1002-1303); assay: cross reactivity, ELISA on C3d, anti-His detection
T3 construct: domain: C3d
T3 sequence (P01024 1002-1303 limits assumed): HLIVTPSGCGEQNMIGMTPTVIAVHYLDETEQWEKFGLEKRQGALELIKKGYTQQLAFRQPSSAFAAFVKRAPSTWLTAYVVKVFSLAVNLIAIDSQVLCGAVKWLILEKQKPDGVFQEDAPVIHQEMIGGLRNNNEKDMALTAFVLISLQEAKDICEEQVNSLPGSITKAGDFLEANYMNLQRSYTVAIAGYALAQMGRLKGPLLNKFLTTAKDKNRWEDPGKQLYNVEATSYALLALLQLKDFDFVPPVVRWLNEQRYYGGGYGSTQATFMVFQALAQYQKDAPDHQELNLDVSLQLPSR
Protocol: In order to determine whether the anti-C3b antibodies described herein can bind to complement pathway components iC3b and C3c, the following steps were performed: Directly add iC3b(complement Technologies A115), C3d (complement Technologies A117), or C3c (complement Technologies A116), at 2 μg/ml in Carbonate Buffer onto Coat Maxisorp plate Nunc (442404) at 100 μl per well. Seal plates and incubate at 4° C. overnight. Aspirate plates and wash 3 times with PBS/0.5% Tween 20. Block plates with Diluent (PBS, 4% BSA Fraction V (Fisher ICN16006980), 0.1% Tween 20 (Sigma P1379), 0.1% Triton X-100 (Sigma P234729)) and incubate for 2 h at room temperature or overnight at 4° C. Then wash plates once with PBS/0.5% Tween 20. Dilute Fabs at 100 nM and subsequent dilutions (or higher concentration if needed) in diluent and plate 100 μl per well. Incubate at room temperature for 1 h. Wash plates 3 times with PBS/0.5% Tween 20. Add 100 μl/well of anti-Histidine-HRP monoclonal detection antibody at 1:400 in diluent and incubate at room temperature for 1 h. Then wash 4 times with PBS/0.5% Tween 20. Add 100 μl of TMB substrate (Pierce 34028) and incubate at room temperature for up to 5 min. Add 50 μl of Stop solution (2N Sulfuric Acid) to each well and read plate at 450 nm and correct for plastic reading at 570 nm.

[5] = target: T2, cynomolgus complement C3b protein; assay: cell-based or functional assay
[6] = target: T1, human complement C3b protein; assay: cell-based or functional assay
[7] = target: T2, cynomolgus complement C3b protein; assay: solution equilibrium titration (SET), ECL detection, Fab
[8] = target: T1, human complement C3b protein; assay: as above
[9] = target: T1, human complement C3b protein; assay: bead proximity assay, C3b-acceptor beads; competitor biotinylated fH
Protocol: as §1

[10] = target: T4, human C5 (human, UniProt P01031 19-673; P01031 678-1676); assay: cross reactivity, capture ELISA with anti-C5 capture antibody, anti-His detection
T4 construct: Captured by an anti-C5 antibody in the ELISA
T4 sequence (P01031 19-673 limits assumed, chain 1 of 2): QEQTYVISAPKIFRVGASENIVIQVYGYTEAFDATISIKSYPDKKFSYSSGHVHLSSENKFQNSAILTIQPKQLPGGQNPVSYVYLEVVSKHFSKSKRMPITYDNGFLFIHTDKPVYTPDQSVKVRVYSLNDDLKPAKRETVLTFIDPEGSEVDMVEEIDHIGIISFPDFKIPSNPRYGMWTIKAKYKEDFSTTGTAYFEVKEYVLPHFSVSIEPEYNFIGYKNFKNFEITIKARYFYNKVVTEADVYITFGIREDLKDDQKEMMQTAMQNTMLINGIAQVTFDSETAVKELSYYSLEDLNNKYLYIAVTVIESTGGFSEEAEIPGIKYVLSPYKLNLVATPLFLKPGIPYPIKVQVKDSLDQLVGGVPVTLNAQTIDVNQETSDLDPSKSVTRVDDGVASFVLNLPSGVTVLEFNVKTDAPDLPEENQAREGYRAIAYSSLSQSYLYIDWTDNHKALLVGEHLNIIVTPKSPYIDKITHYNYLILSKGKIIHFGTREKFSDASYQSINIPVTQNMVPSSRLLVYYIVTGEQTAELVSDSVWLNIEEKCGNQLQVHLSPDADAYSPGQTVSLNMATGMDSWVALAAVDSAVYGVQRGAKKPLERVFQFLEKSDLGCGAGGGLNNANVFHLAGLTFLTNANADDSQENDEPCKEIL
T4 sequence (P01031 678-1676 limits assumed, chain 2 of 2): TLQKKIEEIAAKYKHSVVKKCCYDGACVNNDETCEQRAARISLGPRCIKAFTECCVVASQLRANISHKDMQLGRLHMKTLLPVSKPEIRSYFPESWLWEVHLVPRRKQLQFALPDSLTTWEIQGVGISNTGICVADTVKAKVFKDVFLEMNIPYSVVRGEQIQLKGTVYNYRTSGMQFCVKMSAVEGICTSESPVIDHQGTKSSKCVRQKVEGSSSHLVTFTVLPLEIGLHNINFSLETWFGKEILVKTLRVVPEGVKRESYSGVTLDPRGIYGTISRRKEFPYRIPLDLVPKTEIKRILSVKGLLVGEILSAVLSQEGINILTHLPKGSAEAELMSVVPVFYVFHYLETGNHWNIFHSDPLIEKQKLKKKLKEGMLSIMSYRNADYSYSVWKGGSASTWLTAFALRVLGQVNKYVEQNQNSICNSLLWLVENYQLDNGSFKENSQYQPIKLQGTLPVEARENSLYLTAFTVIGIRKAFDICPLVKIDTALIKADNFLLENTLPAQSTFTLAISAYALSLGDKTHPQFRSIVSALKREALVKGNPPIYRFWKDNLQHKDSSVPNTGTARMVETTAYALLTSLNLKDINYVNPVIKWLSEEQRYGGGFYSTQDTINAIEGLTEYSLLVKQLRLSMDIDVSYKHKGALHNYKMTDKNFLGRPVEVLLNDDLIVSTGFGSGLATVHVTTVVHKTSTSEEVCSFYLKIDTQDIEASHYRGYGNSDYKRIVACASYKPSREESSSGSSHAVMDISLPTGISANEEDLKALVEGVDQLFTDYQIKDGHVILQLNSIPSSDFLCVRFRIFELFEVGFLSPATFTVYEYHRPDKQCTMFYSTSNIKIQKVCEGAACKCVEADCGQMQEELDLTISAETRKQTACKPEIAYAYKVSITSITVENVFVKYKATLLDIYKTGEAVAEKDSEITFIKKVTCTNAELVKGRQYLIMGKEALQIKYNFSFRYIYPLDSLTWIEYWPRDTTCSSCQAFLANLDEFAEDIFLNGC

[11] = target: T1, human complement C3b protein; assay: bead proximity assay, C3b-acceptor beads; competitor biotinylated fB(D24G/N260D)
Protocol: as §1

[12] = target: T2, cynomolgus complement C3b protein; assay: SPR (Biacore T100), C3b captured by anti-C3d antibody, IgG as analyte, 1:1 model
[13] = target: T1, human complement C3b protein; assay: as above
[14] = target: T1, human complement C3b protein; assay: AlphaScreen bead proximity, C3b-Acceptor beads pre-incubated with antibody, then C3b-Donor beads; inhibition of C3b-C3b dimer formation; unit from the axis [Antibody] nM [D]
Protocol: (§2) In brief, purified C3b and fP were conjugated to unconjugated acceptor or donor beads (PerkinElmer) using AminoLink Reductant (Pierce) during a 48 h incubation at room temperature. Beads were quenched using Carboxymethoxylamine Hemihydrochloride (Aldrich), and purified by centrifugation at 13000 rpm and three washes with 0.1M TBST. Purified fB(D24G/N260D) and fH were biotinylated during a 30 min incubation with 20-fold molar excess of NHS-Chromogenic-biotin (Pierce) at room temperature, and purified using Zeba 0.5 ml desalting columns (Pierce).
as §1

[15] = target: T1, human complement C3b protein; assay: ELISA, C3b captured on coated anti-C3d antibody, antibody titrated (axis: IgG concentration)
Protocol: (§3) The C3b antibodies were examined to determine whether they were selective for binding to C3b relative to the C3b precursor C3. Briefly, binding selectivity for C3b was determined by performing the following steps. Coat Maxisorp plate Nunc (442404) with anti-C3d rabbit monoclonal (abcam 17453) at 2 μg/ml in Carbonate Buffer at 100 μl/well. Seal plates and incubate at 4° C. overnight. Aspirate plates and wash 3 times with PBS/0.5% Tween 20. Block plates with Diluent (PBS, 4% BSA Fraction V (Fisher ICN16006980), 0.1% Tween 20 (Sigma P1379), 0.1% Triton X-100 (Sigma P234729)) and incubate for 2 h at room temperature or overnight at 4° C. Then wash plates once with PBS/0.5% Tween 20. Dilute purified C3b (complement technologies A114 lot 21) and C3 (complement technologies A113c) at 1 μg/ml in diluent and plate 100 μl per well. Incubate for 1 h at room temperature. Then wash 3 times with PBS/0.5% Tween 20.
Dilute Fabs at 100 nM and subsequent dilutions (or higher concentration) in diluent and plate 100 μl per well. Incubate at room temperature for 1 h. Wash plates 3 times with PBS/0.5% Tween 20. Add 100 μl/well of anti-Histidine-HRP monoclonal detection antibody at 1:400 in diluent and incubate at room temperature for 1 h. Then wash 4 times with PBS/0.5% Tween 20. […] Add 50 μl of Stop solution (2N Sulfuric Acid) to each well and read plate at 450 nm and correct for plastic reading at 570 nm.

[16] = target: T1, human complement C3b protein; assay: cell-based or functional assay; remark: listed apart in the source
[17] = target: T1, human complement C3b protein
[18] = target: T3, human C3d; assay: C3d binding ELISA, IgG titrated from about 0.006 to 100 nM
[19] = target: T1, human complement C3b protein; assay: AlphaScreen bead proximity, C3b-Acceptor beads pre-incubated with antibody, then biotinylated fH and SA-Donor beads; blocked ligand: fH [C]
Protocol: as §2, §1

[20] = target: T1, human complement C3b protein; assay: AlphaScreen bead proximity, C3b-Acceptor beads pre-incubated with antibody, then biotinylated fB(D24G/N260D) and SA-Donor beads; blocked ligand: fB [A]
Protocol: as §2, §1

[21] = target: T1, human complement C3b protein; assay: AlphaScreen bead proximity, C3b-Acceptor beads pre-incubated with antibody, then C3b-Donor beads; inhibition of C3b-C3b dimer formation; unit from the axis [Antibody] nM; value lies above the highest point shown (about 800 nM) [D]
Protocol: as §2, §1

[22] = target: T1, human complement C3b protein; assay: ELISA, C3b or C3 captured by anti-C3d antibody
Protocol: as §3
Dilute Fabs at 100 nM and subsequent dilutions (or higher concentration) in diluent and plate 100 μl per well. Incubate at room temperature for 1 h. Wash plates 3 times with PBS/0.5% Tween 20. Add 100 μl/well of anti-Histidine-HRP monoclonal detection antibody at 1:400 in diluent and incubate at room temperature for 1 h. Then wash 4 times with PBS/0.5% Tween 20. Add 100 μl of TMB substrate (Pierce 34028) and incubate at room temperature for up to 5 min. Add 50 μl of Stop solution (2N Sulfuric Acid) to each well and read plate at 450 nm and correct for plastic reading at 570 nm.

Binder	IC50 [1]	Kd [2]	Kd [3]	binding result [4]	C3b Dep (nM), cyno serum, IC50 [5]	HA (nM), 10% cyno serum, IC50 [5]	MAC Dep (nM), cyno serum, IC50 [5]	C3b Dep (nM), human serum, IC50 [6]	HA (nM), 10% human serum, IC50 [6]	MAC Dep (nM), human serum, IC50 [6]	Kd [7]	Kd [8]	IC50 [9]	binding result [10]	IC50 [11]	Kd [12]	koff [12]	kon [12]	Kd [13]	koff [13]	other results
B1	300 nM	0.092 nM	0.003 nM	no binding	56 nM	86 nM	5 nM	13 nM	45 nM	1 nM	0.1 nM	0.004 nM	0.1 nM	no binding	0.1 nM						
B2	300 nM	0.089 nM	0.007 nM	no binding	35 nM	59 nM	7 nM	13 nM	35 nM	1 nM	0.12 nM	0.002 nM	0.1 nM	no binding	0.1 nM						
B3																0.0102 nM	4.67e-05 s⁻¹	4.57e+06 M⁻¹ s⁻¹	0.0001 nM	3.21e-07 s⁻¹	kon [13]: 3.21e+06 M⁻¹ s⁻¹; EC50 [14]: 300 nM; EC50 (read off the curve) [15]: ~0.08 nM; MAC deposition on zymosan, IC50 [16]: ≤ 5 nM; hemolysis of rabbit red blood cells, 10% human or cynomolgus serum, IC50 [16]: ≤ 50 nM; inhibition of C3a and C5a generation during hemolysis, IC50 [16]: ≤ 50 nM; fold binding selectivity for C3b over C3 [17]: 1000 fold; binding result [18]: no binding (tested: 100 nM); IC50 (read off the curve) [19]: ~0.04 nM; IC50 (read off the curve) [20]: ~0.05 nM
B4																0.202 nM	0.00029 s⁻¹	1.45e+06 M⁻¹ s⁻¹	0.00288 nM	1.02e-06 s⁻¹	kon [13]: 353000 M⁻¹ s⁻¹; MAC deposition on zymosan, IC50 [16]: ≤ 5 nM; hemolysis of rabbit red blood cells, 10% human or cynomolgus serum, IC50 [16]: ≤ 50 nM; inhibition of C3a and C5a generation during hemolysis, IC50 [16]: ≤ 50 nM; EC50 [21]: 2360 nM; fold binding selectivity for C3b over C3 [22]: > 1000 fold; binding result [18]: no binding (tested: 100 nM); IC50 (read off the curve) [19]: ~0.02 nM; IC50 (read off the curve) [20]: ~0.05 nM
